According to publication PMC5499601 (Nucleic Acids Research, 2017):

Key:
Test in all cases: EMSA
BsSpo0J V75A = molecular target: T1, BsSpo0J V75A (UniProt P26497 1-282, V75A)
T1 sequence: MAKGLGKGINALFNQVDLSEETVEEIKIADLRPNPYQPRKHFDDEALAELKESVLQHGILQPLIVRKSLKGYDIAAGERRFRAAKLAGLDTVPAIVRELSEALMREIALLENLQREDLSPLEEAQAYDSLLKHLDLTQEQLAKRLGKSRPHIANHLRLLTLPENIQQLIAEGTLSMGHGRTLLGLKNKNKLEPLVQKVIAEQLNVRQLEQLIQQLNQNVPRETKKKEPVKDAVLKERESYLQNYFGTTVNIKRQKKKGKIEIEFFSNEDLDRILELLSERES

BsSpo0J Q61R = molecular target: T2, BsSpo0J Q61R (UniProt P26497 1-282, Q61R)
T2 sequence: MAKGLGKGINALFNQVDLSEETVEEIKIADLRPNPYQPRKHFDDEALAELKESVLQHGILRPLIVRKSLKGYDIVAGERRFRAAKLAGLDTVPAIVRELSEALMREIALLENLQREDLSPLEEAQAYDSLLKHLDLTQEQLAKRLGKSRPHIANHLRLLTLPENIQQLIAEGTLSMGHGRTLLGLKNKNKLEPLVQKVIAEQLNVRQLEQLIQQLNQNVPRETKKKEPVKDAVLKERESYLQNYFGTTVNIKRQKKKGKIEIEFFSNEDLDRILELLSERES

BsSpo0J R105E = molecular target: T3, BsSpo0J R105E (UniProt P26497 1-282, R105E)
T3 sequence: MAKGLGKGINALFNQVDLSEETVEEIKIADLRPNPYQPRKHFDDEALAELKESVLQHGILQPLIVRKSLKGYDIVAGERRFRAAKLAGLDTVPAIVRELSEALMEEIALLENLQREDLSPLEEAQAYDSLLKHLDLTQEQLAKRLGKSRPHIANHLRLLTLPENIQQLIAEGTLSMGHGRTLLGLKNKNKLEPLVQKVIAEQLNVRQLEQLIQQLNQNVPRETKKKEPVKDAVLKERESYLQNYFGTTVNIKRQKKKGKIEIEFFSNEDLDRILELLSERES

BsSpo0J R105A = molecular target: T4, BsSpo0J R105A (UniProt P26497 1-282, R105A)
T4 sequence: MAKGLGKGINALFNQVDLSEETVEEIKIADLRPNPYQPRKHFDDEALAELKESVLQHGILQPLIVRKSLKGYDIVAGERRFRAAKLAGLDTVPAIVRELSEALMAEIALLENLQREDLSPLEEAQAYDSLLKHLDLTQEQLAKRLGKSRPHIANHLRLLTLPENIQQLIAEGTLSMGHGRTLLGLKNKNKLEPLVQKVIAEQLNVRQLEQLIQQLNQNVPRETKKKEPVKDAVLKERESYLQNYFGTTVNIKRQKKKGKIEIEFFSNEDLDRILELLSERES

BsSpo0J R82A = molecular target: T5, BsSpo0J R82A (UniProt P26497 1-282, R82A)
T5 sequence: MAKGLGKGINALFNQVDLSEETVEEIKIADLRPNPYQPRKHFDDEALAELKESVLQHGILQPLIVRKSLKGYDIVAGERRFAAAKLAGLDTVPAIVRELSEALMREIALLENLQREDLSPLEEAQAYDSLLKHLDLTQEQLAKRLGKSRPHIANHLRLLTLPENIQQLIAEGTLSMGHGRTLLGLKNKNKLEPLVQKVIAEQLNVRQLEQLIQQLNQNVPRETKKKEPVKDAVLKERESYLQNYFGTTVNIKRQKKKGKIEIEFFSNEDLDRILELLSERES

BsSpo0J F81A = molecular target: T6, BsSpo0J F81A (UniProt P26497 1-282, F81A)
T6 sequence: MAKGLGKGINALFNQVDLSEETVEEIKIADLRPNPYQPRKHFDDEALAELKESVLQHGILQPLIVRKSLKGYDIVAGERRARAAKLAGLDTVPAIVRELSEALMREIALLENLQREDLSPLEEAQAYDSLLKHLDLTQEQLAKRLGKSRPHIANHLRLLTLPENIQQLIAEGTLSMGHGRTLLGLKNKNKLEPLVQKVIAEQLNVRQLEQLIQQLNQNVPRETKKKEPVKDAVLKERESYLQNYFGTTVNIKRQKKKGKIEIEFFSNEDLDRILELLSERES

BsSpo0J WT = molecular target: T7, BsSpo0J WT (UniProt P26497 1-282)
T7 sequence: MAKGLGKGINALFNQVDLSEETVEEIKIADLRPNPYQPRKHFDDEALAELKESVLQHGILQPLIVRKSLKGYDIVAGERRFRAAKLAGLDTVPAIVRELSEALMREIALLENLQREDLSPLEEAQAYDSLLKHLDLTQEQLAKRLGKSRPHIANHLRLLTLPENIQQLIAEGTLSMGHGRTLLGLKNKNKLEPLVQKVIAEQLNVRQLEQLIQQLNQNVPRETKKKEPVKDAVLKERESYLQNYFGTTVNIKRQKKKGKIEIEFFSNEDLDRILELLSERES

BsSpo0J N112S = molecular target: T8, BsSpo0J N112S (UniProt P26497 1-282, N112S)
T8 sequence: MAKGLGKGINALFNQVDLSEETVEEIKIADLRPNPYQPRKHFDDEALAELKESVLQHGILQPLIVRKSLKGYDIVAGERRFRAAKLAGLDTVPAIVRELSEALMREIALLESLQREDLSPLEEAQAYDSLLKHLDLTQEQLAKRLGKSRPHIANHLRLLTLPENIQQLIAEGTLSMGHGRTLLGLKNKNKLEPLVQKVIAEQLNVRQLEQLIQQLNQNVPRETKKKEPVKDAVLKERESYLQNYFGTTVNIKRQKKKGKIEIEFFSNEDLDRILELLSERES

BsSpo0J R79A = molecular target: T9, BsSpo0J R79A (UniProt P26497 1-282, R79A)
T9 sequence: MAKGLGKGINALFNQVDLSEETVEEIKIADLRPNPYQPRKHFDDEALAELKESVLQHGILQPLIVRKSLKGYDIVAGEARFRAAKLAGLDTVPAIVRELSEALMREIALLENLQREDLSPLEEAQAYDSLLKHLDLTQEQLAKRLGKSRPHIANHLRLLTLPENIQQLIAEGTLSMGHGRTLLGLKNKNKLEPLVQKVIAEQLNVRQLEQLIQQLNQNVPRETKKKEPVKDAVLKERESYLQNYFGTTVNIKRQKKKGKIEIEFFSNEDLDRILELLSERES

Measured: binding result

B1: 39-bp parS (dsDNA)
DNA 1: CAGTTGAATCAGAATGTTCCACGTGAAACAAAGAAAAAA
DNA 2: TTTTTTCTTTGTTTCACGTGGAACATTCTGATTCAACTG
binds: all assays above
